The text below walks through data of patent US20110123523A1 (MERRIMACK PHARMACEUTICALS, published 2011).

The target of test [1] is T1, ErbB3 receptor, wild type full length, on cells (MALME-3M, ADRr/AdrR, CHO K1 transfectants) (human, UniProt P21860 20-1342).
T1 construct: whole, on cells; also called HER3
Nature of the test: cell binding assay, flow cytometry on MALME-3M cells, one-site binding fit.
Procedure: (§1) The concentrations of the diluted antibody ranged from 200 nM to 0.4 nM.
(§2) Aliquoted cells in the 96-well plate were incubated with the protein dilutions for 30 minutes at room temperature on a platform shaker and washed 3 times with 300 μl BD stain buffer. […] Finally, cells were washed twice, pelleted and resuspended in 250 μl BD stain buffer+0.5 μg/ml propidium iodide. Analysis of 10,000 cells was done in a FACScalibur flow cytometer using the FL4 channel. MFI values and the corresponding concentrations of the anti-ErbB3-antibodies were plotted on the y-axis and x-axis, respectively. The KD of the molecule was determined by GraphPad Prism using the one-site binding model for a non-linear regression curve.
(§3) The KD value was calculated based on the formula Y=Bmax*X/KD+X (Bmax=fluorescence at saturation. X=antibody concentration. Y=degree of binding).

Test [2] addresses T1, ErbB3 receptor, wild type full length, …. The experiment in a line: flow cytometry on MALME-3M cells, Alexa 647 goat anti-human IgG, one-site binding fit. On the technique in general: A flow cytometer gives signals particle by particle.
Procedure: as §1, §2, §3
In test [3] the target is T2, ErbB3 as used in the surface plasmon resonance (Flexchip) and KinExA assays (human, UniProt P21860 20-643, limits assumed). Nature of the test: surface plasmon resonance (Flexchip assay); Flexchip SPR.
The target of test [4] is T3, EGFR (ErbB1) on ADRr cells (human, UniProt P00533 25-1210).
T3 construct: whole, on cells
Nature of the test: flow cytometry on ADRr cells, biotinylated BTC + streptavidin-PE; BTC concentration not printed on the sheet (legend paragraph 39 names 10 nM).
Procedure: (§4) Cells were then washed twice with 500 μl BD stain buffer and incubated with 100 μl of a 1:200 dilution of streptavidin-PE (PE=phycoerythrin) (Invitrogen) in BD stain buffer for 45 minutes. Finally, cells were washed twice, resuspended in 300 μl of BD stain buffer and analyzed in a FACScalibur flow cytometer. […] To assess background staining from the streptavidin-PE conjugate, cells were incubated with 100 μl of a 1:200 dilution of streptavidin-PE only for 45 minutes.

For test [5], the target named is T1, ErbB3 receptor, wild type full length, …. The experiment in a line: flow cytometry on MALME-3M cells (ErbB1 negative, ErbB3 positive), biotinylated BTC + streptavidin-PE.
Procedure: as §4
The target in test [6] is T2, ErbB3 as used in the surface plasmon …. The experiment in a line: surface plasmon resonance (Flexchip assay); Flexchip SPR, not KinExA.
Test [7] has the same target. Nature of the test: Kinetic Exclusion Assay (KinExA); KinExA, not Flexchip SPR.
The target of test [8] is T4, full-length ErbB3 L102A mutant on CHO K1 cells (human, UniProt P21860 20-1342).
T4 construct: whole, on cells; Numbering as for m15
Nature of the test: FACS on CHO K1 cells stably expressing full-length ErbB3 L102A; Ab #6 directly labelled with Alexa 488 (FL1).
Source text: (§5) CHO K1 cells expressing wild type full-length ErbB3 served as a positive control.

The target of test [9] is T1, ErbB3 receptor, wild type full length, …. Nature of the test: cell-based or functional assay.
The target in test [10] is T2, ErbB3 as used in the surface plasmon …. Nature of the test: Kinetic Exclusion Assay (KinExA); KinExA.
For test [11], the target named is T1, ErbB3 receptor, wild type full length, …. The experiment in a line: flow cytometry on MALME-3M cells, Alexa 647 goat anti-human IgG, one-site binding fit. The source holds these as a separate data set.
Procedure: as §1, §2, §3
The target of test [12] is T5, full-length ErbB3 Y104A mutant on CHO K1 cells (human, UniProt P21860 20-1342).
T5 construct: whole, on cells; Numbering as for m15
Nature of the test: FACS on CHO K1 cells stably expressing full-length ErbB3 Y104A; Ab #6 directly labelled with Alexa 488 (FL1).
Source text: as §5

The target of test [13] is T6, full-length ErbB3 D93A mutant on CHO K1 cells (human, UniProt P21860 20-1342).
T6 construct: whole, on cells
Nature of the test: FACS on CHO K1 cells stably expressing full-length ErbB3 D93A; Ab #6 directly labelled with Alexa 488 (FL1).
Source text: as §5

Test [14] addresses recombinant human EGFR (coated on ELISA plate) (human, UniProt P00533 25-645, limits assumed). Nature of the test: ELISA on plate-coated protein, HRP anti-human IgG, chemiluminescence. (ELISA stands for enzyme-linked immunosorbent assay.)
Procedure: (§6) Specifically, 96-well Nunc Maxisorb plates were coated with 50 μl of 5 μg/ml protein (recombinant human ErbB3, recombinant human EGFR or unrelated protein (BSA)) and incubated overnight at room temperature. The next morning, plates were washed 3 times with 1000 μl/well of PBST (0.05% Tween-20) in the BioTek plate washer. The wells were blocked for 1 hr at room temperature with 2% BSA in PBS. The plates were washed 3 times with 1000 μl/well of PBST (0.05% Tween-20) in the BioTek plate washer. […] All samples were run in duplicate and incubated for 2 hrs at 4° C. on a plate shaker. The plates were washed plates 3 times with 1000 μl/well of PBST (0.05% Tween-20) in the BioTek plate washer. 50 μl of human IgG detection antibody (HRP conjugated (Bethyl Inc; 1:75000 dilution in 2% BSA, PBST)) was added and the plates were incubated for 1 hr at room temperature. The plates were washed plate 3 times with 1000 μl/well of PBST (0.05% Tween-20) in the BioTek plate washer. 50 μL of Supersignal Pico ELISA substrate was added and the plate was read on the Fusion plate reader. The data was analyzed using the EXCEL program. Duplicate samples were averaged and the error bars represent the standard deviation between the two replicates.
Test [15] deals with bovine serum albumin (BSA), unrelated protein control (bovine, UniProt P02769 25-607). The description is as above.
Procedure: as §6
In the next test the target is T7, TGF-α (control in ELISA) (UniProt P01135 40-89).
T7 construct: also called transforming growth factor-α
Described as above.

Test [16] deals with T1, ErbB3 receptor, wild type full length, …. The experiment in a line: flow cytometry on MALME-3M cells; Fab at about 500 nM; goat anti-human Alexa 647 secondary antibody.
For test [17] the target is unchanged. Nature of the test: flow cytometry, biotinylated heregulin EGF + streptavidin-PE; cells MALME3 according to the sheet's title and legend paragraph 42 (Example 10 names ADRr cells).
Procedure: Cells were then washed twice with 500 μl BD stain buffer and incubated with 100 μl of a 1:200 dilution of streptavidin-PE (PE=phycoerythrin) (Invitrogen) in BD stain buffer for 45 minutes. Finally, cells were washed twice, resuspended in 300 μl of BD stain buffer and analyzed in a FACScalibur flow cytometer.

Like-named read-outs stand apart in the source and are kept apart here.

Sequence of bovine serum albumin (BSA), unrelated protein control (P02769 25-607 limits assumed): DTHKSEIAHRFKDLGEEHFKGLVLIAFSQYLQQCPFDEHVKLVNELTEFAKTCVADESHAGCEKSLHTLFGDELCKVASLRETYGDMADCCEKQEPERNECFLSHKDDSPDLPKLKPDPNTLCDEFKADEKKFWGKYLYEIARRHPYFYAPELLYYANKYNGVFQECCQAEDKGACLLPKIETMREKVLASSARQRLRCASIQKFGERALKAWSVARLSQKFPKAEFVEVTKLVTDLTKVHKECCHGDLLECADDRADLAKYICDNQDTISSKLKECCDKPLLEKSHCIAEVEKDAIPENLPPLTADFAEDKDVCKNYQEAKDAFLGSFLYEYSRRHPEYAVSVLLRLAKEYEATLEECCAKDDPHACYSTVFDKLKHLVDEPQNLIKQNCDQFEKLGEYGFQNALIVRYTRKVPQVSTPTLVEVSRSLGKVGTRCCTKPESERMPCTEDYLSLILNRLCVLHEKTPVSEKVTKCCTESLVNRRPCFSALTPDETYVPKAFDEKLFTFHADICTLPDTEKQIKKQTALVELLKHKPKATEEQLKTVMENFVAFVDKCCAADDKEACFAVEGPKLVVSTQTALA
Procedure for TGF-α (control in ELISA): as §6

B1: Antibody #3 (Ab #3), human anti-ErbB3 antibody (antibody, V domains shown)
VH: EVQLLESGGGLVQPGGSLRLSCAASGFTFSAYNMRWVRQAPGKGLEWVSVIYPSGGATRYADSVKGRFTISRDNSKNTLYLQMNSLRAEDTAVYYCARGYYYYGMDVWGQGTLVTVSS
VL: QSVLTQPPSASGTPGQRVTISCSGSDSNIGRNYIYWYQQFPGTAPKLLIYRNNQRPSGVPDRISGSKSGTSASLAISGLRSEDEAEYHCGTWDDSLSGPVFGGGTKLTVL
On to B1, for which the Kd (commonly the free concentration of one partner at which half of the binding sites on the other are occupied at equilibrium, for simple one-to-one binding) in test [1] was approximately 1.3 nM; in test [3], approximately 8 nM. Further, the EC50 (read off the curve) – broadly, the concentration that produces a half-maximal response – in test [2] was approximately 8 nM.

B2: betacellulin (BTC) (ligand, UniProt P35070 32-111, looked up)
chain: DGNSTRSPETNGLLCGDPEENCAATTTQSKRKGHFSRCPKQYKHYCIKGRCRFVVAEQTPSCVCDEGYIGARCERVDLFY
modifications: biotinylated (Example 7)
notes: also called biotinylated BTC
Turning to B2, the binding result in test [4] is listed as “binds”; in [5], “no binding (tested: 500 nM)”.

B3: Antibody #6 (Ab #6), human anti-ErbB3 antibody (antibody, V domains shown)
VH: EVQLLESGGGLVQPGGSLRLSCAASGFTFSHYVMAWVRQAPGKGLEWVSSISSSGGWTLYADSVKGRFTISRDNSKNTLYLQMNSLRAEDTAVYYCTRGLKMATIFDYWGQGTLVTVSS
VL: QSALTQPASVSGSPGQSITISCTGTSSDVGSYNVVSWYQQHPGKAPKLIIYEVSQRPSGVSNRFSGSKSGNTASLTISGLQTEDEADYYCCSYAGSSIFVIFGGGTKVTVL
notes: also called antibody number 6; MM121
On to B3, for which the results for the Kd in test [1], in [6] and in test [7] were approximately 4 nM, approximately 4 nM and 0.769 nM, respectively. In addition, the binding result in test [8], in [12] and in [13] was “no binding” throughout. In addition, the “IC50 of inhibition of BTC-induced ErbB3 phosphorylation (ELISA, ADRr cells)” value in test [9] came out at 5.9 nM. Besides, the “IC50 of inhibition of HRG1-beta-induced ErbB3 phosphorylation (ELISA, ADRr cells)” value in test [9] was found to be 2.4 nM. In test [10], the koff (usually the first-order rate constant of dissociation) was found to be 0.00011 s⁻¹. The kon (commonly the second-order rate constant of association) in test [10] was 143000 M⁻¹ s⁻¹. Also, the “EC50 (read off the curve)” value in test [11] fell in the range of 1 to 2 nM.

B4: Ab #6, IgG2 isotype (antibody, V domains shown)
VH: EVQLLESGGGLVQPGGSLRLSCAASGFTFSHYVMAWVRQAPGKGLEWVSSISSSGGWTLYADSVKGRFTISRDNSKNTLYLQMNSLRAEDTAVYYCTRGLKMATIFDYWGQGTLVTVSS
VL: QSALTQPASVSGSPGQSITISCTGTSSDVGSYNVVSWYQQHPGKAPKLIIYEVSQRPSGVSNRFSGSKSGNTASLTISGLQTEDEADYYCCSYAGSSIFVIFGGGTKVTVL
notes: Human IgG2; also called IgG2 isotype of Ab #6
Regarding B4, the binding result (in test [14]; in test [15]; in the test with TGF-α (control in ELISA)) was “no binding (tested: 1000 nM)” in each case.

B5: Ab#14 (Fab, V domains shown)
VH: EVQLLESGGGLVQPGGSLRLSCAASGFTFSAYGMGWVRQAPGKGLEWVSYISPSGGHTKYADSVKGRFTISRDNSKNTLYLQMNSLRAEDTAVYYCAKVLETGLLVDAFDIWGQGTMVTVSS
VL: QYELTQPPSVSVYPGQTASITCSGDQLGSKFVSWYQQRPGQSPVLVMYKDKRRPSEIPERFSGSNSGNTATLTISGTQAIDEADYYCQAWDSSTYVFGTGTKVTVL
notes: also called Fab form of Ab #14; MM 121-14
Regarding B5, the binding result in [16] was “binds”.

B6: biotinylated heregulin EGF (ligand, UniProt Q02297-6 177-241, looked up)
chain: SHLVKCAEKEKTFCVNGGECFMVKDLSNPSRYLCKCPNEFTGDRCQNYVMASFYKHLGIEFMEAE
modifications: also: biotinylated, site not given here
notes: domain: heregulin EGF
As to B6, the binding result in [17] was “binds”.
